pKd: −log10 of the molar value. “And” between values parts separate entries of the source, which are not always exact repeats. Equal entries are not always repeated. Where two headings read alike, the source gives them in different places.
Legend:
[1] = target: N2
[2] = tested on: B/Brisbane/60/2008 (Victoria); set-up: species or system influenza B virus; settings: in vivo, po, 10 mg/kg
[3] = tested on: H3N2 A/Hong Kong/8/68; set-up: species or system influenza A virus; settings: in vivo, po, 10 mg/kg
[4] = tested on: H1N1 A/Puerto Rico/8/34; set-up: species or system influenza A virus; settings: in vivo, po, 10 mg/kg
[5] = tested on: B/Victoria/504/2000 (Yamagata); set-up: species or system influenza B virus; settings: in vivo, po, 10 mg/kg
[6] = target: N2 A/South Australia/34/2019 (245Gly+) (Influenza A virus A/South Australia/34/2019)
[7] = target: N1 neuraminidase from A/Swine/Jiangsu/J004/2018 (Influenza A virus A/Swine/Jiangsu/J004/2018 (H1N1))
[8] = target: N2 neuraminidase from A/Washington/01/2007 (Influenza A virus A/Washington/01/2007); test: flow cytometry on NA-expressing cells
[9] = target: N1 neuraminidase from A/California/07/2009 (Influenza A virus A/California/07/2009 (H1N1)); test: flow cytometry on NA-expressing cells
[10] = target: N2_A_Leningrad_134_17_57 (influenza A virus); test: flow cytometry on NA-expressing cells
[11] = target: B/Yamanashi/166/1998(Yamagata) (influenza B virus); test: flow cytometry on NA-expressing cells
[12] = target: B/Malaysia/2506/2004(Victoria) (influenza B virus); test: flow cytometry on NA-expressing cells
[13] = target: N1_NA_A_swine_Hebei_0116_2017 (influenza A virus); test: flow cytometry on NA-expressing cells
[14] = target: N1 neuraminidase from A/Swine/Jiangsu/J004/2018 (Influenza A virus A/Swine/Jiangsu/J004/2018 (H1N1)); test: flow cytometry on NA-expressing cells
[15] = target: N9 neuraminidase from A/Anhui/1/2013 (Influenza A virus A/Anhui/1/2013 (H7N9)); test: flow cytometry on NA-expressing cells
[16] = target: N8_A_harbor_seal_New_hampshire_179629_2011 (influenza A virus); test: flow cytometry on NA-expressing cells
[17] = target: N2_NA_A_South_Australia_34_2019 (influenza A virus); test: flow cytometry on NA-expressing cells
[18] = target: N7_A_Netherlands_078_03 (influenza A virus); test: flow cytometry on NA-expressing cells
[19] = target: N3_A_Canada_rv504_2004 (influenza A virus); test: flow cytometry on NA-expressing cells
[20] = target: B/Lee/10/1940(Ancestral) (influenza B virus); test: flow cytometry on NA-expressing cells
[21] = target: N1_A_Stockholm_18_2007 (influenza A virus); test: flow cytometry on NA-expressing cells
[22] = target: N6_A_Swine_Ontario_01911_1_99 (influenza A virus); test: flow cytometry on NA-expressing cells
[23] = target: N2 A/South Australia/34/2019 (245Gly+) (Influenza A virus A/South Australia/34/2019); remark: listed apart in the source
[24] = target: N1 neuraminidase from A/Swine/Jiangsu/J004/2018 (Influenza A virus A/Swine/Jiangsu/J004/2018 (H1N1)); remark: listed apart in the source

**Q.** Which results are given for 1G01 (antibody)?
**A.** pKd [1]: > 12.00; koff [1]: < 1e-07 s⁻¹; kon [1]: 40200 M⁻¹ s⁻¹

**Q.** With `CCOC(=O)C1=C[C@@H](OC(CC)CC)[C@H](NC(C)=O)[C@@H](N)C1` [OSE, oseltamivir] as the molecule, how does the “reduction in viral titres in comparison to the vehicle” value (“reduction in viral titres” below) [2] read?
**A.** The value was “exception”.

**Q.** What about the “reduction in viral titres” value [3] of the same molecule?
**A.** The value was 1 log.

**Q.** What about the “reduction in viral titres” value [4] of the same molecule?
**A.** Its value is 1 log.

**Q.** And the “reduction in viral titres” value [5]?
**A.** Its value is 1 log.

**Q.** Which Alexa 647-A+ (percent of cells in the positive gate) [6] does the source give for FNI3 (antibody) here?
**A.** The Alexa 647-A+ (percent of cells in the positive gate) was 59.2% and 54%.

**Q.** And the pKd [1]?
**A.** The pKd was over 12.00.

**Q.** What about the koff [1] of the same molecule?
**A.** Its koff is under 1e-07 s⁻¹.

**Q.** What about the kon [1] of the same molecule?
**A.** Its kon is 11500 M⁻¹ s⁻¹.

**Q.** What about the Alexa 647-A+ (percent of cells in the positive gate) [7] of the same molecule?
**A.** Its Alexa 647-A+ (percent of cells in the positive gate) is 83.9% and 85.2%.

**Q.** What about the MFI normalized vs wt [8] of the same molecule?
**A.** Its MFI normalized vs wt is 1.

**Q.** And the MFI normalized vs wt [9]?
**A.** The MFI normalized vs wt was 1.

**Q.** And the MFI normalized vs wt [10]?
**A.** The MFI normalized vs wt was 1.

**Q.** And the MFI normalized vs wt [11]?
**A.** The MFI normalized vs wt was 1.

**Q.** And the MFI normalized vs wt [12]?
**A.** The MFI normalized vs wt was 1.

**Q.** What about the MFI normalized vs wt [13] of the same molecule?
**A.** The MFI normalized vs wt was 1.

**Q.** What about the MFI normalized vs wt [14] of the same molecule?
**A.** Its MFI normalized vs wt is 1.

**Q.** And the MFI normalized vs wt [15]?
**A.** The MFI normalized vs wt was 1.

**Q.** And the MFI normalized vs wt [16]?
**A.** The MFI normalized vs wt was 1.

**Q.** What about the MFI normalized vs wt [17] of the same molecule?
**A.** The MFI normalized vs wt was 1.

**Q.** And the MFI normalized vs wt [18]?
**A.** The MFI normalized vs wt was 1.

**Q.** And the MFI normalized vs wt [19]?
**A.** The MFI normalized vs wt was 1.

**Q.** What about the MFI normalized vs wt [20] of the same molecule?
**A.** Its MFI normalized vs wt is 1.

**Q.** What about the MFI normalized vs wt [21] of the same molecule?
**A.** Its MFI normalized vs wt is 1.

**Q.** What about the MFI normalized vs wt [22] of the same molecule?
**A.** The MFI normalized vs wt was 1.

**Q.** And the Alexa 647-A+ (percent of cells in the positive gate) [23]?
**A.** Its Alexa 647-A+ (percent of cells in the positive gate) is 49.1% and 48.4%.

**Q.** And the Alexa 647-A+ (percent of cells in the positive gate) [24]?
**A.** Its Alexa 647-A+ (percent of cells in the positive gate) is 83.7% and 79.6%.

**Q.** Which results are given for FNI9 (antibody)?
**A.** Alexa 647-A+ (percent of cells in the positive gate) [6]: 66.1% and 71.3%; pKd [1]: > 12.00; Alexa 647-A+ (percent of cells in the positive gate) [7]: 84% and 83.5%; Alexa 647-A+ (percent of cells in the positive gate) [23]: 68.8% and 57%; Alexa 647-A+ (percent of cells in the positive gate) [24]: 82.1% and 78%

Reference: patent publication US20240092876A1 (priority 2020, published 2024)
